# What was measured:
# [1] = tested on: D-isomer of the substrate Ac-Thr-Ile-Nle-Nle-Gln-Arg.amide
# [2] = tested on: D-fluorogenic substrate 2-aminobenzoyl-Thr-Ile-Nle-Phe(p-NO2)-Gln-Arg.amide
# [3] = tested on: L-isomer of the substrate Ac-Thr-Ile-Nle-Nle-Gln-Arg.amide
# [4] = tested on: L-fluorogenic substrate 2-aminobenzoyl-Thr-Ile-Nle-Phe(p-NO2)-Gln-Arg.amide
Substance,"cleavage of hexapeptide substrate (RP HPLC, products identified by ion spray MS) [1]","cleavage of the chiral fluorogenic substrate (fluorogenic assay, corresponding chiral substrate) [2]","cleavage of hexapeptide substrate (RP HPLC, products identified by ion spray MS) [3]","cleavage of the chiral fluorogenic substrate (fluorogenic assay, corresponding chiral substrate) [4]",cleavage of fluorogenic substrate (increase in fluorescence) [2],cleavage of fluorogenic substrate (increase in fluorescence) [4]
D-[Aba^67.95(CO-S)^51-52]2 HIV-1 PR,The D-enzyme cleaves only the D-substrate,the cleavage of chiral fluorogenic substrates by the D- and L-HIV-1 PR analogues,is inactive on the L-substrate,,,
L-[Aba^67.95(CO-S)^51-52]2 HIV-1 PR,is inactive towards the D-substrate,,the L-enzyme shows full activity towards the L-substrate,the cleavage of chiral fluorogenic substrates by the D- and L-HIV-1 PR analogues,,
D-[Aba^67.95.167.195]HIV-1 protease (HIV-1 PR),,,,,the D-enzyme cleaved only the corresponding D-substrate,the D-enzyme cleaved only the corresponding D-substrate (L-substrate not cleaved)
L-[Aba^67.95.167.195]HIV-1 protease (HIV-1 PR),,,,,the L-enzyme cleaved only the L-substrate (D-substrate not cleaved),the L-enzyme cleaved only the L-substrate
